Experimental findings from US20240400715A1 are described below.

Substitutions are numbered along the chain they refer to.

The target of assay [1] is EGFR-CD3 bispecific antibody 401. As to the kind of experiment: BLI self-interaction: antibody captured on AHQ anti-human Fc sensor, free sites blocked with human IgG, same antibody in solution.
Assay [2] concerns the target HER2-CD3 bispecific antibody 504. The description is as above.

B1: EGFR-CD3 bispecific antibody 401 (bispecific antibody, human IgG4 S228P, kappa, F234A L235A)
heavy: EVKLLESGGGLVQPKGSLKLSCAASGFTFNTYAMNWVRQAPGKGLEWVARIRSKYNNYATYYADSVKDRFTISRDDSQSILYLQMNNLKTEDTAMYYCVRHGNFGNSYVSWFAYWGQGTLVTVSSASTKGPSVFPLAPCSRSTSESTAALGCLVKDYFPEPVTVSWNSGALTSGVHTFPAVLQSSGLYSLSSVVTVPSSSLGTKTYTCNVDHKPSNTKVDKRVESKYGPPCPPCPAPEAAGGPSVFLFPPKPKDTLMISRTPEVTCVVVDVSQEDPEVQFNWYVDGVEVHNAKTKPREEQFNSTYRVVSVLTVLHQDWLNGKEYKCKVSNKGLPSSIEKTISKAKGQPREPQVYTLPPCQEEMTKNQVSLWCLVKGFYPSDIAVEWESNGQPENNYKTTPPVLDSDGSFFLYSRLTVDKSRWQEGNVFSCSVMHEALHNHYTQKSLSLSL
chain: QVQLQESGGGSVQAGGSLKLSCAASGRGFSRYAMGWFRQAPGQDREFVATISWTNSTDYADSVKGRFAISRDNAKNTAYLQMNSLKPEDTAVYYCAADKWASSTRSIDYDYWGQGIQVTVSSESKYGPPCPPCPAPEAAGGPSVFLFPPKPKDTLMISRTPEVTCVVVDVSQEDPEVQFNWYVDGVEVHNAKTKPREEQFNSTYRVVSVLTVLHQDWLNGKEYKCKVSNKGLPSSIEKTISKAKGQPREPQVCTLPPSQEEMTKNQVSLSCAVKGFYPSDIAVEWESNGQPENNYKTTPPVLDSDGSFFLVSRLTVDKSRWQEGNVFSCSVMHEALHNRFTQKSLSLSL
light: QAVVTQESALTTSPGETVTLTCRSSTGAVTTSNYANWVQEKPDHLFTGLIGGTNKRAPGVPARFSGSLIGDKAALTITGAQTEDEAIYFCALWYSNLWVFGGGTKVEIKRTVAAPSVFIFPPSDEQLKSGTASVVCLLNNFYPREAKVQWKVDNALQSGNSQESVTEQDSKDSTYSLSSTLTLSKADYEKHKVYACEVTHQGLSSPVTKSFNRGEC
B1 yielded a BLI-Response (self-interaction signal) in assay [1] of 0.043 nm.

B2: HER2-CD3 bispecific antibody 504 (bispecific antibody, human IgG4 S228P, kappa, F234A L235A)
chain: QVQLVQSGGGLVQAGGSLRLSCAASGRTFSSYAMAWFRQAPGKEREFVAAISWSGANIYVADSVKGRFTISRDNAKDTVYLQMNSLKPEDTAVYYCAVKLGFAPVEERQYDYWGQGTQVTVSSESKYGPPCPPCPAPEAAGGPSVFLFPPKPKDTLMISRTPEVTCVVVDVSQEDPEVQFNWYVDGVEVHNAKTKPREEQFNSTYRVVSVLTVLHQDWLNGKEYKCKVSNKGLPSSIEKTISKAKGQPREPQVYTLPPCQEEMTKNQVSLWCLVKGFYPSDIAVEWESNGQPENNYKTTPPVLDSDGSFFLYSRLTVDKSRWQEGNVFSCSVMHEALHNHYTQKSLSLSL
heavy: B1 heavy with Y354C, C359S, W371S, L373A, Y412V, H440R, Y441F
light: B1 light
In assay [2], B2 showed a BLI-Response (self-interaction signal) of 0.07 nm.
